The target in experiment [1] is non-mutated human leptin (human) (UniProt P41159). Kind of experiment: ELISA, plate-bound leptin receptor-Fc; sample 8, blood donor serum/plasma CS-2. (ELISA stands for enzyme-linked immunosorbent assay.)
Experiment [2] has the same target. The experiment is described as follows: ELISA, plate-bound leptin receptor-Fc; sample 7, WHO standard NIBSC 97/594, nominal 6 ng/ml.
Experiment [3] shares this target. The experiment is described as follows: ELISA, plate-bound leptin receptor-Fc; sample 11, blood donor serum/plasma IDB-8960.
The target is the same in experiment [4]. Kind of experiment: ELISA, plate-bound leptin receptor-Fc; sample 6, WHO standard NIBSC 97/594, nominal 2 ng/ml.
For experiment [5] the target is unchanged. The experiment is described as follows: ELISA, plate-bound leptin receptor-Fc; sample 12, blood donor serum/plasma BB-3935.
Experiment [6] shares this target. The experiment is described as follows: ELISA, plate-bound leptin receptor-Fc; sample 9, blood donor serum/plasma DO-2226.
The target is the same in experiment [7]. Kind of experiment: receptor-Fc ELISA value divided by anti-leptin antibody ELISA value; sample 8, blood donor serum/plasma.
For experiment [8] the target is unchanged. Kind of experiment: receptor-Fc ELISA value divided by anti-leptin antibody ELISA value; sample 11, blood donor serum/plasma.
Experiment [9] has the same target. The experiment is described as follows: receptor-Fc ELISA value divided by anti-leptin antibody ELISA value; WHO standard 6 ng/ml.
Experiment [10] shares this target. The experiment is described as follows: ELISA, plate-bound leptin receptor-Fc; sample 10, blood donor serum/plasma IDB-883-.
For experiment [11] the target is unchanged. Kind of experiment: receptor-Fc ELISA value divided by anti-leptin antibody ELISA value; sample 12, blood donor serum/plasma.
Experiment [12] has the same target. Kind of experiment: receptor-Fc ELISA value divided by anti-leptin antibody ELISA value; sample 1, HEK293 supernatant.
Experiment [13] has the same target. Kind of experiment: receptor-Fc ELISA value divided by anti-leptin antibody ELISA value; sample 9, blood donor serum/plasma.
Experiment [14] has the same target. Kind of experiment: receptor-Fc ELISA value divided by anti-leptin antibody ELISA value; WHO standard 2 ng/ml.
Experiment [15] has the same target. The experiment is described as follows: ELISA, plate-bound leptin receptor-Fc, detection with polyclonal anti-leptin; sample 1, HEK293 supernatant.
Experiment [16] has the same target. Kind of experiment: receptor-Fc ELISA value divided by anti-leptin antibody ELISA value; sample 10, blood donor serum/plasma.
For experiment [17] the target is unchanged. Kind of experiment: ELISA, plate-bound leptin receptor-Fc; sample 4, purified recombinant leptin.

Sequence of UniProt P41159 (P41159 22-167, change not shown): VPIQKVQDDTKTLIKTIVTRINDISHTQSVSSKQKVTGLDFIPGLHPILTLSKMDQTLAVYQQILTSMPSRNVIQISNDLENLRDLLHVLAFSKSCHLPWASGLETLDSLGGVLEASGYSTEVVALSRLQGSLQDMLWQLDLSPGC

Regarding “Recombinant Human Leptin R Fc Chimera, Catalog Number 389-LR/CF, R & D Systems (amino acid sequence Thr20-Asp839 of the human leptin receptor) (from UniProt P48357 20-839) (Fc fusion)”, the measured value functional leptin (concentration read from standard curve) turned out to be 2.81 ng/mL in experiment [1]; 6.05 ng/mL in experiment [2]; 24 ng/mL in experiment [3]; 1.83 ng/mL in experiment [4]; 34.1 ng/mL in experiment [5]; 4.61 ng/mL in experiment [6]. Also, the measured value functional leptin (concentration read from standard curve) in experiment [10] was 7.25 ng/mL; in experiment [15], 490 ng/mL; in experiment [17] it was 278 µg/mL. Also, the quotient of functional leptin and total leptin in experiment [7] came out at 1.14; in experiment [8] it was 0.96; in experiment [9] it was 0.99; in experiment [11], 0.98; in [12], 0.85; in experiment [13], 0.91. In addition, the quotient of functional leptin and total leptin amounted to 0.99 in [14] and 0.87 in experiment [16].

The values above are taken from US20180088134A1.
